Here are results for six molecules from patent publication US12679878B2, “CRF2 receptor agonists and their use in therapy” (SANOFI, priority 2020, dated 2026).

Starred links: 1 amine or outer side, 2 acyl side, 3 side chain; linkers in the order of their positions; H or OH if unused. Non-standard residues stand in square brackets, D forms with d. Groups on a side chain read outwards from the residue. No end group written: not given here. *: point of attachment. C18 diacid = O=C(O)CCCCCCCCCCCCCCCCC(=O)*; γGlu = O=C(O)[C@H](CCC(=O)[*:2])N[*:1]; AEEA = NCCOCCOCC(=O)O; Aib = CC(C)(N)C(=O)O

The target of the test is rat CRF2R α receptor (rat, UniProt P47866 20-411). The test can be described thus: cell-based or functional assay.
Chain of rat CRF2R α receptor (P47866 20-411): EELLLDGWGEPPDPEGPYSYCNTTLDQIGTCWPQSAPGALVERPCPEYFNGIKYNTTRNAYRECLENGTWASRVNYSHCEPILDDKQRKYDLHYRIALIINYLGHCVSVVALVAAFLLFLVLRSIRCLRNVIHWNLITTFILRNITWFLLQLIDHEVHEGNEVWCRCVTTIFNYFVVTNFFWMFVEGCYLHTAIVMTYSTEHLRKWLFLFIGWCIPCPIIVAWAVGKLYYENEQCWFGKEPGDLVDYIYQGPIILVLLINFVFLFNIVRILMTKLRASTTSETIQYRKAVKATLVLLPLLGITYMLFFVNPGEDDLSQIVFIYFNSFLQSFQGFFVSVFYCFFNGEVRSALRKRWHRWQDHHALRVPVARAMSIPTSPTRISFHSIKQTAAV

B1: peptide of SEQ ID NO: 43 (peptide)
peptide: IVLSLDVPIKLK([AEEA-AEEA-γGlu-C18 diacid])QILLEQAKQKKLRAQAETNVRILERV-NH2
modifications: N-terminus assumed
SMILES: CC[C@H](C)[C@H](N)C(=O)N[C@H](C(=O)N[C@@H](CC(C)C)C(=O)N[C@@H](CO)C(=O)N[C@@H](CC(C)C)C(=O)N[C@@H](CC(=O)O)C(=O)N[C@H](C(=O)N1CCC[C@H]1C(=O)N[C@H](C(=O)N[C@@H](CCCCN)C(=O)N[C@@H](CC(C)C)C(=O)N[C@@H](CCCCNC(=O)COCCOCCNC(=O)COCCOCCNC(=O)CC[C@H](NC(=O)CCCCCCCCCCCCCCCCC(=O)O)C(=O)O)C(=O)N[C@@H](CCC(N)=O)C(=O)N[C@H](C(=O)N[C@@H](CC(C)C)C(=O)N[C@@H](CC(C)C)C(=O)N[C@@H](CCC(=O)O)C(=O)N[C@@H](CCC(N)=O)C(=O)N[C@@H](C)C(=O)N[C@@H](CCCCN)C(=O)N[C@@H](CCC(N)=O)C(=O)N[C@@H](CCCCN)C(=O)N[C@@H](CCCCN)C(=O)N[C@@H](CC(C)C)C(=O)N[C@@H](CCCNC(=N)N)C(=O)N[C@@H](C)C(=O)N[C@@H](CCC(N)=O)C(=O)N[C@@H](C)C(=O)N[C@@H](CCC(=O)O)C(=O)N[C@H](C(=O)N[C@@H](CC(N)=O)C(=O)N[C@H](C(=O)N[C@@H](CCCNC(=N)N)C(=O)N[C@H](C(=O)N[C@@H](CC(C)C)C(=O)N[C@@H](CCC(=O)O)C(=O)N[C@@H](CCCNC(=N)N)C(=O)N[C@H](C(N)=O)C(C)C)[C@@H](C)CC)C(C)C)[C@@H](C)O)[C@@H](C)CC)[C@@H](C)CC)C(C)C)C(C)C
On to B1, for which the “EC50 [nM], 0% HSA (cAMP, A7R5 cells)” value amounted to 11.5 nM.

B2: peptide of SEQ ID NO: 131 (peptide)
peptide: IVLSLD[dV]PIKLK([AEEA-AEEA-γGlu-C18 diacid])QILLEQERQK[Aib]QRQQAEKNKQILAQV-NH2
modifications: N-terminus assumed
SMILES: CC[C@H](C)[C@H](N)C(=O)N[C@H](C(=O)N[C@@H](CC(C)C)C(=O)N[C@@H](CO)C(=O)N[C@@H](CC(C)C)C(=O)N[C@@H](CC(=O)O)C(=O)N[C@@H](C(=O)N1CCC[C@H]1C(=O)N[C@H](C(=O)N[C@@H](CCCCN)C(=O)N[C@@H](CC(C)C)C(=O)N[C@@H](CCCCNC(=O)COCCOCCNC(=O)COCCOCCNC(=O)CC[C@H](NC(=O)CCCCCCCCCCCCCCCCC(=O)O)C(=O)O)C(=O)N[C@@H](CCC(N)=O)C(=O)N[C@H](C(=O)N[C@@H](CC(C)C)C(=O)N[C@@H](CC(C)C)C(=O)N[C@@H](CCC(=O)O)C(=O)N[C@@H](CCC(N)=O)C(=O)N[C@@H](CCC(=O)O)C(=O)N[C@@H](CCCNC(=N)N)C(=O)N[C@@H](CCC(N)=O)C(=O)N[C@@H](CCCCN)C(=O)NC(C)(C)C(=O)N[C@@H](CCC(N)=O)C(=O)N[C@@H](CCCNC(=N)N)C(=O)N[C@@H](CCC(N)=O)C(=O)N[C@@H](CCC(N)=O)C(=O)N[C@@H](C)C(=O)N[C@@H](CCC(=O)O)C(=O)N[C@@H](CCCCN)C(=O)N[C@@H](CC(N)=O)C(=O)N[C@@H](CCCCN)C(=O)N[C@@H](CCC(N)=O)C(=O)N[C@H](C(=O)N[C@@H](CC(C)C)C(=O)N[C@@H](C)C(=O)N[C@@H](CCC(N)=O)C(=O)N[C@H](C(N)=O)C(C)C)[C@@H](C)CC)[C@@H](C)CC)[C@@H](C)CC)C(C)C)C(C)C
As for B2, the “EC50 [nM], 0% HSA (cAMP, A7R5 cells)” value stood at 0.39 nM.

B3: peptide of SEQ ID NO: 142 (peptide)
peptide: IVLSLD[dV]PIKLK([AEEA-AEEA-γGlu-C18 diacid])QILLEQARQK[Aib]QREQAEKNKRILERV-NH2
modifications: N-terminus assumed
SMILES: CC[C@H](C)[C@H](N)C(=O)N[C@H](C(=O)N[C@@H](CC(C)C)C(=O)N[C@@H](CO)C(=O)N[C@@H](CC(C)C)C(=O)N[C@@H](CC(=O)O)C(=O)N[C@@H](C(=O)N1CCC[C@H]1C(=O)N[C@H](C(=O)N[C@@H](CCCCN)C(=O)N[C@@H](CC(C)C)C(=O)N[C@@H](CCCCNC(=O)COCCOCCNC(=O)COCCOCCNC(=O)CC[C@H](NC(=O)CCCCCCCCCCCCCCCCC(=O)O)C(=O)O)C(=O)N[C@@H](CCC(N)=O)C(=O)N[C@H](C(=O)N[C@@H](CC(C)C)C(=O)N[C@@H](CC(C)C)C(=O)N[C@@H](CCC(=O)O)C(=O)N[C@@H](CCC(N)=O)C(=O)N[C@@H](C)C(=O)N[C@@H](CCCNC(=N)N)C(=O)N[C@@H](CCC(N)=O)C(=O)N[C@@H](CCCCN)C(=O)NC(C)(C)C(=O)N[C@@H](CCC(N)=O)C(=O)N[C@@H](CCCNC(=N)N)C(=O)N[C@@H](CCC(=O)O)C(=O)N[C@@H](CCC(N)=O)C(=O)N[C@@H](C)C(=O)N[C@@H](CCC(=O)O)C(=O)N[C@@H](CCCCN)C(=O)N[C@@H](CC(N)=O)C(=O)N[C@@H](CCCCN)C(=O)N[C@@H](CCCNC(=N)N)C(=O)N[C@H](C(=O)N[C@@H](CC(C)C)C(=O)N[C@@H](CCC(=O)O)C(=O)N[C@@H](CCCNC(=N)N)C(=O)N[C@H](C(N)=O)C(C)C)[C@@H](C)CC)[C@@H](C)CC)[C@@H](C)CC)C(C)C)C(C)C
As for B3, the “EC50 [nM], 0% HSA (cAMP, A7R5 cells)” value was determined as 0.2 nM.

B4: peptide of SEQ ID NO: 157 (peptide)
peptide: Ac-IVLSLD[dV]PIKLK([AEEA-AEEA-γGlu-C18 diacid])QILLEQARQK[Aib]QREQAEKNKQILEQV-NH2
SMILES: CC[C@H](C)[C@H](NC(C)=O)C(=O)N[C@H](C(=O)N[C@@H](CC(C)C)C(=O)N[C@@H](CO)C(=O)N[C@@H](CC(C)C)C(=O)N[C@@H](CC(=O)O)C(=O)N[C@@H](C(=O)N1CCC[C@H]1C(=O)N[C@H](C(=O)N[C@@H](CCCCN)C(=O)N[C@@H](CC(C)C)C(=O)N[C@@H](CCCCNC(=O)COCCOCCNC(=O)COCCOCCNC(=O)CC[C@H](NC(=O)CCCCCCCCCCCCCCCCC(=O)O)C(=O)O)C(=O)N[C@@H](CCC(N)=O)C(=O)N[C@H](C(=O)N[C@@H](CC(C)C)C(=O)N[C@@H](CC(C)C)C(=O)N[C@@H](CCC(=O)O)C(=O)N[C@@H](CCC(N)=O)C(=O)N[C@@H](C)C(=O)N[C@@H](CCCNC(=N)N)C(=O)N[C@@H](CCC(N)=O)C(=O)N[C@@H](CCCCN)C(=O)NC(C)(C)C(=O)N[C@@H](CCC(N)=O)C(=O)N[C@@H](CCCNC(=N)N)C(=O)N[C@@H](CCC(=O)O)C(=O)N[C@@H](CCC(N)=O)C(=O)N[C@@H](C)C(=O)N[C@@H](CCC(=O)O)C(=O)N[C@@H](CCCCN)C(=O)N[C@@H](CC(N)=O)C(=O)N[C@@H](CCCCN)C(=O)N[C@@H](CCC(N)=O)C(=O)N[C@H](C(=O)N[C@@H](CC(C)C)C(=O)N[C@@H](CCC(=O)O)C(=O)N[C@@H](CCC(N)=O)C(=O)N[C@H](C(N)=O)C(C)C)[C@@H](C)CC)[C@@H](C)CC)[C@@H](C)CC)C(C)C)C(C)C
B4: the “EC50 [nM], 0% HSA (cAMP, A7R5 cells)” value was determined as 1.14 nM.

B5: peptide of SEQ ID NO: 45 (peptide)
peptide: IVLSLDVPIKLK([AEEA-AEEA-γGlu-C18 diacid])QILLEQAKQK[Aib]LKAQAETNVRILERV-NH2
modifications: N-terminus assumed
SMILES: CC[C@H](C)[C@H](N)C(=O)N[C@H](C(=O)N[C@@H](CC(C)C)C(=O)N[C@@H](CO)C(=O)N[C@@H](CC(C)C)C(=O)N[C@@H](CC(=O)O)C(=O)N[C@H](C(=O)N1CCC[C@H]1C(=O)N[C@H](C(=O)N[C@@H](CCCCN)C(=O)N[C@@H](CC(C)C)C(=O)N[C@@H](CCCCNC(=O)COCCOCCNC(=O)COCCOCCNC(=O)CC[C@H](NC(=O)CCCCCCCCCCCCCCCCC(=O)O)C(=O)O)C(=O)N[C@@H](CCC(N)=O)C(=O)N[C@H](C(=O)N[C@@H](CC(C)C)C(=O)N[C@@H](CC(C)C)C(=O)N[C@@H](CCC(=O)O)C(=O)N[C@@H](CCC(N)=O)C(=O)N[C@@H](C)C(=O)N[C@@H](CCCCN)C(=O)N[C@@H](CCC(N)=O)C(=O)N[C@@H](CCCCN)C(=O)NC(C)(C)C(=O)N[C@@H](CC(C)C)C(=O)N[C@@H](CCCCN)C(=O)N[C@@H](C)C(=O)N[C@@H](CCC(N)=O)C(=O)N[C@@H](C)C(=O)N[C@@H](CCC(=O)O)C(=O)N[C@H](C(=O)N[C@@H](CC(N)=O)C(=O)N[C@H](C(=O)N[C@@H](CCCNC(=N)N)C(=O)N[C@H](C(=O)N[C@@H](CC(C)C)C(=O)N[C@@H](CCC(=O)O)C(=O)N[C@@H](CCCNC(=N)N)C(=O)N[C@H](C(N)=O)C(C)C)[C@@H](C)CC)C(C)C)[C@@H](C)O)[C@@H](C)CC)[C@@H](C)CC)C(C)C)C(C)C
With B5, the “EC50 [nM], 0% HSA (cAMP, A7R5 cells)” value was 47.3 nM.

B6: peptide of SEQ ID NO: 140 (peptide)
peptide: IVLSLD[dV]PIKLK([AEEA-AEEA-γGlu-C18 diacid])QILLEQARQK[Aib]QRAQAEKNKRILERV-NH2
modifications: N-terminus assumed
SMILES: CC[C@H](C)[C@H](N)C(=O)N[C@H](C(=O)N[C@@H](CC(C)C)C(=O)N[C@@H](CO)C(=O)N[C@@H](CC(C)C)C(=O)N[C@@H](CC(=O)O)C(=O)N[C@@H](C(=O)N1CCC[C@H]1C(=O)N[C@H](C(=O)N[C@@H](CCCCN)C(=O)N[C@@H](CC(C)C)C(=O)N[C@@H](CCCCNC(=O)COCCOCCNC(=O)COCCOCCNC(=O)CC[C@H](NC(=O)CCCCCCCCCCCCCCCCC(=O)O)C(=O)O)C(=O)N[C@@H](CCC(N)=O)C(=O)N[C@H](C(=O)N[C@@H](CC(C)C)C(=O)N[C@@H](CC(C)C)C(=O)N[C@@H](CCC(=O)O)C(=O)N[C@@H](CCC(N)=O)C(=O)N[C@@H](C)C(=O)N[C@@H](CCCNC(=N)N)C(=O)N[C@@H](CCC(N)=O)C(=O)N[C@@H](CCCCN)C(=O)NC(C)(C)C(=O)N[C@@H](CCC(N)=O)C(=O)N[C@@H](CCCNC(=N)N)C(=O)N[C@@H](C)C(=O)N[C@@H](CCC(N)=O)C(=O)N[C@@H](C)C(=O)N[C@@H](CCC(=O)O)C(=O)N[C@@H](CCCCN)C(=O)N[C@@H](CC(N)=O)C(=O)N[C@@H](CCCCN)C(=O)N[C@@H](CCCNC(=N)N)C(=O)N[C@H](C(=O)N[C@@H](CC(C)C)C(=O)N[C@@H](CCC(=O)O)C(=O)N[C@@H](CCCNC(=N)N)C(=O)N[C@H](C(N)=O)C(C)C)[C@@H](C)CC)[C@@H](C)CC)[C@@H](C)CC)C(C)C)C(C)C
As to B6, the “EC50 [nM], 0% HSA (cAMP, A7R5 cells)” value amounted to 0.1 nM.
